pKd: −log10 of the molar value.

One data set deals with HER2-GST fusion (human) (UniProt P04626). Briefly: not stated (cited). Conditions: 2'-fluoro pyrimidines (general statement); Cell assays mostly in DPBS at 37 C (4 C for surface binding), washes DPBS, 0.5 M NaCl +/- 0.2 N acetic acid or trypsin; Qdot flow after 10% FBS/DPBS block …; cited from earlier work.
Data set [1] addresses PSMA on PC3(PSMA+) cells (human?) (UniProt Q04609). The data set can be described thus: NIR cell uptake (QUSIM). Conditions: 10 nM, 15 min, 37 C, trypsin wash, 2'-fluoro pyrimidines, Cell assays mostly in DPBS at 37 C (4 C for surface binding), washes DPBS, 0.5 M NaCl +/- 0.2 N acetic acid or trypsin, Qdot flow after 10% FBS/DPBS block ….
For data set [2], the target named is PSMA (prostate specific membrane antigen) (human) (UniProt Q04609). Briefly: not stated (cited). Conditions: 2'-fluoro pyrimidines; Cell assays mostly in DPBS at 37 C (4 C for surface binding), washes DPBS, 0.5 M NaCl +/- 0.2 N acetic acid or trypsin; Qdot flow after 10% FBS/DPBS block …; cited from earlier work.
A further data set addresses HER2 (rat) (rat) (UniProt P06494). Briefly: not stated (cited). Conditions: 2'-fluoro pyrimidines; Cell assays mostly in DPBS at 37 C (4 C for surface binding), washes DPBS, 0.5 M NaCl +/- 0.2 N acetic acid or trypsin; Qdot flow after 10% FBS/DPBS block …; cited from earlier work.
In the next data set the target is TrkB (mouse) (mouse) (UniProt P15209). Briefly: not stated (cited). Conditions: 2'-fluoro pyrimidines; Cell assays mostly in DPBS at 37 C (4 C for surface binding), washes DPBS, 0.5 M NaCl +/- 0.2 N acetic acid or trypsin; Qdot flow after 10% FBS/DPBS block …; cited from earlier work.
Chain of TrkB (mouse) (mouse) (P15209 whole entry): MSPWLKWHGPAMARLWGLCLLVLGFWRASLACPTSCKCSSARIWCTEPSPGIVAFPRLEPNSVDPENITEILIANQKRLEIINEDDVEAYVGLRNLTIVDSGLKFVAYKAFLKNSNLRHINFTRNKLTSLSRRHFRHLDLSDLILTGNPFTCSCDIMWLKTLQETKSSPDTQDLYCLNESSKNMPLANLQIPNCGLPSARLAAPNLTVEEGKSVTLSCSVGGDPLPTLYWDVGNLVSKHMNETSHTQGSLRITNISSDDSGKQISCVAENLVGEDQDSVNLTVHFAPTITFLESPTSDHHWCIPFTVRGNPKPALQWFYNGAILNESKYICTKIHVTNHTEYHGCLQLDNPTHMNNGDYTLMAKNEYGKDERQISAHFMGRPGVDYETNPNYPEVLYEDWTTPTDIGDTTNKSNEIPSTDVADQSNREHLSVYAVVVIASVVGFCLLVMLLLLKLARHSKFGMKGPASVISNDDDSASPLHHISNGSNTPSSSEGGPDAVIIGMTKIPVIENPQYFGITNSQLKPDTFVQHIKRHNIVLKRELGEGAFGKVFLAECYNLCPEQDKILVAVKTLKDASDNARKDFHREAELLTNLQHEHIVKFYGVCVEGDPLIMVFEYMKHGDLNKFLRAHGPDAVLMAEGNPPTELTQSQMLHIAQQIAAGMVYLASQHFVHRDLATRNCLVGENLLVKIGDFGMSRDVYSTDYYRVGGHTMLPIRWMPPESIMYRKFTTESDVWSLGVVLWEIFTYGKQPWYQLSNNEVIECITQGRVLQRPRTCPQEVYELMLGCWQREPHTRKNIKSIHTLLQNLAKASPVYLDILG

Chain of PSMA on PC3(PSMA+) cells (human?) (Q04609 whole entry): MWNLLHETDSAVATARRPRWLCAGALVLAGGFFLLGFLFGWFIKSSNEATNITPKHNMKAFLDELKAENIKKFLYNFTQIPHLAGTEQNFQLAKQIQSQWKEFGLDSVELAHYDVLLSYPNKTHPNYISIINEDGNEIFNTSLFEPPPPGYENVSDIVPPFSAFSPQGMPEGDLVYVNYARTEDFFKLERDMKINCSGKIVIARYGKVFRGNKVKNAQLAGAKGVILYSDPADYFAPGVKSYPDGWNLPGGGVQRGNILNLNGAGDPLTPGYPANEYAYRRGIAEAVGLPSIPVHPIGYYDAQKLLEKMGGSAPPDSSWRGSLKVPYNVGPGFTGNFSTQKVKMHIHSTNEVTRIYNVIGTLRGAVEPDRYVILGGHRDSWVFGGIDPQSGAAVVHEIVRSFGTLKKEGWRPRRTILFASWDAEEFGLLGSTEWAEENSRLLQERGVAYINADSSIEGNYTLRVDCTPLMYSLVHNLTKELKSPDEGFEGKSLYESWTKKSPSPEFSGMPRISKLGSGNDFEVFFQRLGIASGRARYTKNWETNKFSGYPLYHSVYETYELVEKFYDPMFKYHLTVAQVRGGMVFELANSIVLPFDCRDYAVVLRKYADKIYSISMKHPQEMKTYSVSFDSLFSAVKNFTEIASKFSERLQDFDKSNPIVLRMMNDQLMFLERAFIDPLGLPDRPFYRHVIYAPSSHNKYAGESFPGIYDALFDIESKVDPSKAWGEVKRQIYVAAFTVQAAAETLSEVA
Chain of PSMA (prostate specific membrane antigen) (human) (Q04609 whole entry): as above
Chain of HER2 (rat) (rat) (P06494 whole entry): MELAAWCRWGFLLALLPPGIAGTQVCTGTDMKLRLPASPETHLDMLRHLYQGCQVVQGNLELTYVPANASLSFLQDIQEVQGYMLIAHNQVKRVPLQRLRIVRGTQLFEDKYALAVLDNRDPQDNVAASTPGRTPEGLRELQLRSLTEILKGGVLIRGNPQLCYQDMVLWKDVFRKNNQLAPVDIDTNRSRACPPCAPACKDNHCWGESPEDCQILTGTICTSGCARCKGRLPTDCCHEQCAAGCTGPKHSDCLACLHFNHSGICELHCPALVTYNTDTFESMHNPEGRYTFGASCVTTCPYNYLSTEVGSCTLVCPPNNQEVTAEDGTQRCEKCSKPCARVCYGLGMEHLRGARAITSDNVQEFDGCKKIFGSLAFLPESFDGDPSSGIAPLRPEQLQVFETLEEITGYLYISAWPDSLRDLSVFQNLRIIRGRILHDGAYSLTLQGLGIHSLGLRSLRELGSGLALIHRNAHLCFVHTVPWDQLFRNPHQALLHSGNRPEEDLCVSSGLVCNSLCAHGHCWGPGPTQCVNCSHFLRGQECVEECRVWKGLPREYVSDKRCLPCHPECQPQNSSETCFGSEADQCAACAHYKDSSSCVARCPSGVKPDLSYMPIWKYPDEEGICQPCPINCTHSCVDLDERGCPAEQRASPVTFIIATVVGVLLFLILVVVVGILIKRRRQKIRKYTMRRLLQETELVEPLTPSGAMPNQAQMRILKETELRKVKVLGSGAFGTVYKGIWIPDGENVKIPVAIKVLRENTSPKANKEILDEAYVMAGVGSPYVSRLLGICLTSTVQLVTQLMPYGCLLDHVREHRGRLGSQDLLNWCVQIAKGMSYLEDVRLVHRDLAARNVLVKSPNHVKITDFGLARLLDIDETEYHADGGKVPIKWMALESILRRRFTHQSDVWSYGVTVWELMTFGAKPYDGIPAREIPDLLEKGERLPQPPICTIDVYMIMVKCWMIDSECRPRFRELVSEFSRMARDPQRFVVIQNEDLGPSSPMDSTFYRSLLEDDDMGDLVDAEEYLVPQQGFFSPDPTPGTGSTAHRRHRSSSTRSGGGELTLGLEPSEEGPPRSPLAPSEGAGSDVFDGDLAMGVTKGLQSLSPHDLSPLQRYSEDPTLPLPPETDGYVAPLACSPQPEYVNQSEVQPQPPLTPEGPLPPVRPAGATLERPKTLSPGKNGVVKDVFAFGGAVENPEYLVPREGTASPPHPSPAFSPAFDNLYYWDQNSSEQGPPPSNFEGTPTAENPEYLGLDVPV

In general, pKd refers to the negative decadic logarithm of the Kd, by convention in mol/L. Regarding “AGCCGCGAGGGGAGGGAUAGGGUAGGGCGCGGCU [hHER2-apt]”, in the data set with HER2-GST fusion (human), the pKd was 8.46.

Turning to “GGGACCGAAAAAGACCUGACUUCUAUACUAAGUCUACGUUCCC [A9g]”, in data set [1] (<1% in PSMA- cells), the binding signal (% of input internalized) stood at 13. In addition, the pKd in data set [2] was 8.30.

Take “GGGACCGAAAAAGACCUGGCUUCUAUACUAAGUCUACGUUCCC [A9g.6]”: the binding signal (% of input internalized) in data set [1] is < 0.5.

As to “GGGAGGACGAUGCGGUCCUGUCGUCUGUUCGUCCCCAGACGACUCGCCCGA [E1]”, the negative-log Kd (pKd) with HER2 (rat) (rat) is 7.22.

Take “GGGAGGACGAUGCGGUCGUAUUAUCCGCUGCACGCCAGACGACUCGCCCGA [C4-3]”: in the data set with TrkB (mouse) (mouse), the pKd was 8.70.
